We go through 8 substances from patent publication US8586056.

pKd: −log10 of the molar value. Where two headings read alike, the source gives them in different places. Some results are limits rather than exact numbers.

The target in assay [1] is HIV-1 Env 16936 (HIV-1, isolate 16936).
Assay [2] concerns the target 16936V1-3-55 gp160 full length Env (HIV-1 (16936 with 16055 V1-3 loops)).
Assay [3] concerns the target Env of the 16055 virus (HIV-1 clade C, isolate 16055).
In assay [4] the target is HIV-1 clade C 16055 gp120-Histag, EF117268_gp120 (HIV-1 clade C, isolate 16055). Put plainly: Octet. A general note: In BLI a coated tip is dipped into the sample, and binding shifts an interference pattern.
For assay [5] the target is unchanged. Put plainly: Octet (biolayer interferometry).
Assay [6] concerns the target Env of the 16055 virus (HIV-1 clade C, isolate 16055). Put plainly: shed gp120 capture ELISA. (In general: An ELISA detects its analyte on a solid surface through an enzyme-linked reagent.)
Assay [7] has as its target JRCSF. Briefly: shed gp120 capture ELISA.
For assay [8], the target named is Env of the 16055 virus (HIV-1 clade C, isolate 16055). Put plainly: ELISA; same curves as panel 16055-2 of FIG. 3A.
The target in assay [9] is Zm135 (HIV-1).
For assay [10], the target named is CAP45 (HIV-1).
Assay [11] concerns the target Env of the 16055 virus (HIV-1 clade C, isolate 16055). This is another data set of the same source.
In assay [12] the target is Du172 (HIV-1).
Assay [13] has as its target YU2.
The target of assay [14] is DU422 (HIV-1).
Assay [15] addresses JRCSF.
The target in assay [16] is Zm197 (HIV-1).
Assay [17] deals with HIV-1 Env 16936 (HIV-1, isolate 16936). The source holds these as a separate data set.
For assay [18], the target named is Zm135 (HIV-1). The source holds these as a separate data set.
Assay [19] has as its target CAP45 (HIV-1). The source holds these as a separate data set.
For assay [20], the target named is Zm109F (AY424138) (HIV-1).
The target of assay [21] is JRFL (HIV-1).
Assay [22] concerns the target Env of the 16055 virus (HIV-1 clade C, isolate 16055). This is another data set of the same source.
The target of assay [23] is Du172 (HIV-1). This is another data set of the same source.
Assay [24] has as its target YU2. The source holds these as a separate data set.
Assay [25] deals with QH0692 (HIV-1).
For assay [26], the target named is DU422 (HIV-1). The source holds these as a separate data set.
Assay [27] has as its target JRCSF. The source holds these as a separate data set.
Assay [28] concerns the target SF162 (HIV-1).
For assay [29], the target named is 0013095 (EF117267) (HIV-1).
The target in assay [30] is Zm197 (HIV-1). The source holds these as a separate data set.
Assay [31] deals with ZM214 (HIV-1).
Assay [32] deals with 16055 gp140 trimer with c-terminus trimerization domain GCN4 (HIV-1 clade C, isolate 16055). Briefly: ELISA on recombinant gp140.
In assay [33] the target is HIV-1 clade C 16055 gp140-Histag, EF117268_gp140 (HIV-1 clade C, isolate 16055). Put plainly: ELISA on recombinant gp140.
In the next assay the target is 0013095 gp140. Briefly: ELISA on recombinant gp140.
Assay [34] has as its target HIV-1 clade C 16055 gp140-Histag, EF117268_gp140 (HIV-1 clade C, isolate 16055). Put plainly: ELISA on recombinant gp140. The source holds these as a separate data set.
For assay [35], the target named is BG505_gp120 (HIV-1 clade A, BG505). Put plainly: ELISA on BG505 gp120.
Assay [36] concerns the target 16936-16055V123loop (HIV-1 (16936 backbone with 16055 V1, V2 and V3 loops)). Briefly: ELISA.
Assay [37] deals with JRFL (HIV-1). This is another data set of the same source.
The target of assay [38] is QH0692 (HIV-1). This is another data set of the same source.
In assay [39] the target is SF162 (HIV-1). The source holds these as a separate data set.
Assay [40] concerns the target ZM214 (HIV-1). The source holds these as a separate data set.

4E10 (antibody): the values for the neutralization IC50 in [1], in assay [2] and in assay [3] were 3.85 µg/mL, 2.68 µg/mL and 7.02 µg/mL, respectively.
As for A32 (antibody), in assay [4], the pKd (usually −log10 of the Kd, conventionally taken in molar units) is 8.28; the off-rate (koff) (in general, the rate constant with which the complex falls apart) was 8.23e-05 s⁻¹; the kon (usually the rate constant with which the complex forms) is 15600 M⁻¹ s⁻¹.
In assay [4], F105 (antibody) came in with a koff of 0.00169 s⁻¹ and an on-rate (kon) of 8430 M⁻¹ s⁻¹. In addition, the pKd in assay [5] is 6.70.
As for PG9 (antibody), the EC50 (read off the curve) (in general, the concentration at which the effect is half-maximal) worked out at 0.3 µg/mL in assay [6]; 0.3 µg/mL with JRCSF [7]; 0.3 µg/mL in assay [8]; 0.1 µg/mL in assay [32]; 0.2 µg/mL in assay [33]; 0.9 µg/mL with 0013095 gp140. For the same substance, the results for the EC50 (read off the curve) in assay [34], in assay [35] and in assay [36] were 0.1 µg/mL, 0.04 µg/mL and 0.2 µg/mL, respectively. Moreover, the neutralization IC50 with Zm135 (HIV-1) [9] was over 25 µg/mL; in the assay with RW020 (HIV-1), 0.05 µg/mL; with Q842 (HIV-1), 0.02 µg/mL; with CAP45 (HIV-1) [10], 0.003 µg/mL; in assay [11], 0.01 µg/mL; with Du172 (HIV-1) [12], 0.24 µg/mL. Also, the neutralization IC50 with REJ0451 (HIV-1) stood at 0.001 µg/mL; with YU2 [13], 1.73 µg/mL; with UG037 (HIV-1), 0.02 µg/mL; with WIT04160 (HIV-1) it was 0.005 µg/mL; with DU422 (HIV-1) [14] it was 0.178 µg/mL; with JRCSF [15] it was 0.002 µg/mL. The neutralization IC50 with MulV is over 25 µg/mL; with Zm197 (HIV-1) [16] it was 0.287 µg/mL; in the assay with Zm135 (HIV-1) [18] it was 17.6 µg/mL; with CAP45 (HIV-1) [19] it was under 0.01 µg/mL; in assay [20] it was 0.46 µg/mL; in the assay with JRFL (HIV-1) [21], over 25 µg/mL. The neutralization IC50 in assay [22] is under 0.01 µg/mL; in the assay with Du172 (HIV-1) [23], 0.49 µg/mL; in the assay with PVO (HIV-1), 9.76 µg/mL; in the assay with YU2 [24], under 0.01 µg/mL; with QH0692 (HIV-1) [25] it was over 25 µg/mL; with Bal (HIV-1), under 0.01 µg/mL. The neutralization IC50 with 25925 (EF117273) (HIV-1) was 0.15 µg/mL; in the assay with DU422 (HIV-1) [26] it was 1.64 µg/mL; with JRCSF [27], under 0.01 µg/mL; with CAAN (AY835452) (HIV-1) it was 11.9 µg/mL; with SF162 (HIV-1) [28], over 25 µg/mL; in assay [29] it was under 0.01 µg/mL. The neutralization IC50 with 25710 (EF117271) (HIV-1) was under 0.01 µg/mL; in the assay with 6535 (AY835438) (HIV-1), 0.6 µg/mL; in the assay with AC10 (HIV-1), 0.05 µg/mL; in the assay with Zm197 (HIV-1) [30], 0.61 µg/mL; in the assay with ZM214 (HIV-1) [31], over 25 µg/mL; in assay [1], over 25 µg/mL. The substance further registered a neutralization IC50 in [2] of 0.03 µg/mL. For the same substance, in assay [17], the neutralization IC50 (virus printed '6936') is over 25 µg/mL.
Take PG16 (antibody): the neutralization IC50 was determined as 0.037 µg/mL with RW020 (HIV-1); 0.009 µg/mL with Q842 (HIV-1); 0.002 µg/mL in the assay with CAP45 (HIV-1) [10]; 0.01 µg/mL in assay [11]; 0.023 µg/mL in the assay with Du172 (HIV-1) [12]; 0.004 µg/mL in the assay with REJ0451 (HIV-1). The neutralization IC50 is 0.114 µg/mL in the assay with YU2 [13]; 0.01 µg/mL in the assay with UG037 (HIV-1); 0.002 µg/mL in the assay with WIT04160 (HIV-1); 0.042 µg/mL in the assay with DU422 (HIV-1) [14]; 0.001 µg/mL in the assay with JRCSF [15]; over 25 µg/mL with MulV. Moreover, the neutralization IC50 with Zm197 (HIV-1) [16] is 0.765 µg/mL; in the assay with Zm135 (HIV-1) [18], over 25 µg/mL; with CAP45 (HIV-1) [19], under 0.01 µg/mL; in [20], over 25 µg/mL; with JRFL (HIV-1) [21], over 25 µg/mL; in the assay with Du172 (HIV-1) [23] it was 0.06 µg/mL. The neutralization IC50 in the assay with PVO (HIV-1) is 21.9 µg/mL; with YU2 [24], under 0.01 µg/mL; in the assay with QH0692 (HIV-1) [25], over 25 µg/mL; in the assay with Bal (HIV-1), under 0.01 µg/mL; with 25925 (EF117273) (HIV-1), 0.11 µg/mL; in the assay with DU422 (HIV-1) [26] it was 2.34 µg/mL. The neutralization IC50 is under 0.01 µg/mL in the assay with JRCSF [27]; 12.9 µg/mL with CAAN (AY835452) (HIV-1); over 25 µg/mL with SF162 (HIV-1) [28]; under 0.01 µg/mL in [29]; under 0.01 µg/mL with 25710 (EF117271) (HIV-1); over 25 µg/mL with 6535 (AY835438) (HIV-1). Also, the neutralization IC50 with AC10 (HIV-1) is under 0.01 µg/mL; with Zm197 (HIV-1) [30], 1.68 µg/mL; with ZM214 (HIV-1) [31] it was over 25 µg/mL; in assay [1] it was over 25 µg/mL; in assay [2] it was 0.06 µg/mL; in assay [3], under 0.01 µg/mL. Moreover, the neutralization IC50 (virus printed '6936') in assay [17] was over 25 µg/mL. Besides, the EC50 (read off the curve) in assay [32] was 0.08 µg/mL; in [33], 0.1 µg/mL; in assay [34], 0.08 µg/mL; in assay [35], 0.2 µg/mL.
For the substance VRC01 (antibody), in assay [4], the koff is 0.000294 s⁻¹ and the kon was found to be 4780 M⁻¹ s⁻¹. The substance further gave a pKd in assay [5] of 7.21.
For the substance b6 (antibody), in [4], the pKd was 8.11, the koff was 8.66e-05 s⁻¹ and the kon worked out at 11000 M⁻¹ s⁻¹.
Turning to b12 (antibody), the neutralization IC50 in the assay with Zm135 (HIV-1) [9] was over 25 µg/mL; with RW020 (HIV-1), 10 µg/mL; in the assay with Q842 (HIV-1), over 25 µg/mL; with CAP45 (HIV-1) [10], 0.37 µg/mL; in the assay with JRFL (HIV-1) [37], 0.022 µg/mL; with Du172 (HIV-1) [12], 0.3 µg/mL. For the same substance, the neutralization IC50 with REJ0451 (HIV-1) is 5.92 µg/mL; with YU2 [13], 2.18 µg/mL; in the assay with UG037 (HIV-1), over 25 µg/mL; with QH0692 (HIV-1) [38], 0.97 µg/mL; with WIT04160 (HIV-1) it was 8.58 µg/mL; with DU422 (HIV-1) [14], 0.464 µg/mL. The neutralization IC50 with JRCSF [15] was 0.096 µg/mL; in the assay with MulV, over 25 µg/mL; with SF162 (HIV-1) [39] it was 0.07 µg/mL; with Zm197 (HIV-1) [16], over 25 µg/mL; with ZM214 (HIV-1) [40], 13.6 µg/mL; in [1] it was over 25 µg/mL. Besides, the neutralization IC50 is 20.5 µg/mL in assay [2] and over 25 µg/mL in [3]. The same substance yielded a koff in assay [4] of 0.00107 s⁻¹. For the same substance, the kon in assay [4] came to 8790 M⁻¹ s⁻¹. This substance gave a negative-log Kd (pKd) in assay [5] of 6.92. In assay [35], this substance returned an EC50 (read off the curve) of 0.03 µg/mL.
